Assay [1] deals with recombinant human FcRn (heterodimer of FcRn heavy chain and beta2-microglobulin) (human) (UniProt P55899). In words: BLI (Octet), biotinylated human FcRn on streptavidin sensors, pH 6, 1:1 model. (Biolayer interferometry detects binding as a change in optical thickness at a sensor tip.)
In assay [2] the target is T1, recombinant human FcRn (heterodimer of FcRn heavy chain and beta2-microglobulin) (human, UniProt P55899 24-297; P61769 21-119, limits assumed, biotinylated for the Octet assay (site not stated)).
T1 construct: In-house recombinant heterodimeric FcRn; captured as biotinylated protein on streptavidin sensors for BLI; also called hFcRn; Fc neonatal receptor
T1 sequence (P55899 24-297 limits assumed, chain 1 of 2): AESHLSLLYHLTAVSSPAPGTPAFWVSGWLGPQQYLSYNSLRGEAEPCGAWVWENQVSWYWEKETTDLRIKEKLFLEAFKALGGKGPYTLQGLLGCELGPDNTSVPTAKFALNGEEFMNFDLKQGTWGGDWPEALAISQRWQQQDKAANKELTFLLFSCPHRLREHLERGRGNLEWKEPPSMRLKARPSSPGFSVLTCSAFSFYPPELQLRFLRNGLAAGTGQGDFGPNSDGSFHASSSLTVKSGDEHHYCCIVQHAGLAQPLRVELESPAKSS
T1 sequence (P61769 21-119 limits assumed, chain 2 of 2): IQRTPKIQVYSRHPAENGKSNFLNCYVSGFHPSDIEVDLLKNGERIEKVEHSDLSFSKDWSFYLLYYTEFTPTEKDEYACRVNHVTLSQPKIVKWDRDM
Described as above. The protocol: (§1) Octet binding analysis. […] Biotinylated FcRn at 1 μg/mL in PBS buffer (pH 7.4) or 100 mM MES buffer (pH 6.0), with 3 mg/mL bovine serum albumin, 0.05% (vol/vol) and Tween 20 (1× Kinetics Buffer; ForteBio), were captured on streptavidin biosensors (ForteBio). The loaded biosensors were washed with assay buffer to remove any unbound protein, followed by association and dissociation measurements with serial dilutions of the different Fc variants or Fc fusion constructs. Octet software (version 7.2) was used to calculate kinetic parameters (kₒₙ and koff) and apparent affinities (KD) from a nonlinear fit based on the 1:1 binding kinetic model of the data, with the equation

For assay [3], the target named is T1, recombinant human FcRn (heterodimer of …). In words: BLI (Octet) on recombinant FcRn, pH 6 against neutral pH. How it is done:
as §1

recombinant human FcRn (heterodimer of FcRn heavy chain and beta2-microglobulin) (human), sequence (P55899 24-297 limits assumed, chain 1 of 2): as the sequence (P55899 24-297 limits assumed, chain 1 of 2) above
recombinant human FcRn (heterodimer of FcRn heavy chain and beta2-microglobulin) (human), sequence (P61769 21-119 limits assumed, chain 2 of 2, further chain): as the sequence (P61769 21-119 limits assumed, chain 2 of 2) above

Turning to “MFc1 (C4), monomeric IgG4 Fc variant with YTE mutations (from UniProt P01861 111-327)”, the dissociation constant (Kd) in assay [1] stood at 370 nM.

B1: MFc2 (C4n), monomeric IgG4 Fc variant with no YTE mutations (other)
chain: GPSVFLFPPKPKDTLMISRTPEVTCVVVDVSQEDPEVQFNWYVDGVEVHNAKTKPREEQFNSTYRVVSVLTVLHQDWLNGKEYKCKVSNKGLPSSIEKTISKAKGQPREPQVYTFPPSQEEMTKNQVSLRCLVKGFYPSDIAVEWESNGQPENNYKTTKPVLDSDGSFRLESRLTVDKSRWQEGNVFSCSVMHEALHNHYTQKSLSLSL
For B1, the Kd in assay [2] came out at 3560 nM.

B2: MFc3, the S354E point mutant of MFc1 (other)
chain: GPSVFLFPPKPKDTLYITREPEVTCVVVDVSQEDPEVQFNWYVDGVEVHNAKTKPREEQFNSTYRVVSVLTVLHQDWLNGKEYKCKVSNKGLPSSIEKTISKAKGQPREPQVYTFPPEQEEMTKNQVSLRCLVKGFYPSDIAVEWESNGQPENNYKTTKPVLDSDGSFRLESRLTVDKSRWQEGNVFSCSVMHEALHNHYTQKSLSLSL
For B2, the Kd in assay [2] stood at 330 nM. Besides, the “fold decrease from pH 6 binding to neutral pH binding” value in assay [3] is approximately 50 fold.

B3: MFc4 (T1-S354E), monomeric IgG4 Fc variant (other)
chain: GPSVFLFPPKPKDTLMISRTPEVTCVVVDVSQEDPEVQFNWYVDGVEVHNAKTKPREEQFNSTYRVVSVLTVLHQDWLNGKEYKCKVSNKGLPSSIEKTISKAKGQPREPQVYTFPPEQEEMTKNQVSLRCLVKGFYPSDIAVEWESNGQPENNYKTTKPVLDSDGSFRLESRLTVDKSRWQEGNVFSCSVMHEACSYHLCKSLSLSL
notes: Engineered IgG4 CH2-CH3 with the CH3 monomer set, S354E and the half-life mutation set around residues 432-438 in place of YTE
On to B3, for which the Kd in assay [2] is 5 nM. The “fold decrease from pH 6 binding to neutral pH binding” value in assay [3] is approximately 50 fold.

A word on the Kd: it is the concentration at which binding is half-saturated.

The values above are taken from patent US20240239898A1 (published 2024).
